Assays:
plasminogen in blood = settings: in vivo; cited from earlier work
fibrin = settings: cited from earlier work
thrombin = settings: cited from earlier work
[1] = cited from earlier work; for site of clearance: sialic acid-containing or after sialic acid elimination
[2] = no carbohydrate chain; cited from earlier work
[3] = no carbohydrate chain; cited from earlier work; remark: listed apart in the source
plasmin = settings: cited from earlier work
chymotrypsin = assay: proteolysis susceptibility of hG-CSF and hG-CSF[ND28] produced in Escherichia coli; type: in vitro ADME
Source text: Analysis of hG-CSF and the hG-CSF derivative hG-CSF[ND 28] […] On the basis of the above findings, it is estimated that, in hG-CSF[ND28], a portion close to the N terminus and a portion in the vicinity of the 144th (from the N terminus) amino acid are found on the polypeptide surface. Therefore, an attempt was made to add a carbohydrate chain to hG-CSF[ND28] on the 6th or 145th (from the N terminus) amino acid residue thereof. An hG-CSF[ND28] derivative which has a carbohydrate chain addition site on the 6th (from the N terminus) amino acid residue is hG-CSF[ND28N6] and a derivative which has a carbohydrate chain addition site on the 145th (from the N terminus) amino acid residue is hG-CSF[ND28N145]. In these cases, it is expected that the carbohydrate chain addition can result in development of protease resistance. Retardation of blood clearance can also be expected as a result of stabilization of the polypeptide.

[4] = rat plasma and rat perfusate; cited from earlier work

## Urokinase
Plasminogen in blood
  systemic hyperfibrinolysis / bleeding tendency: causing systemic hyperfibrinolysis and leading to a bleeding tendency
fibrin
  affinity for fibrin: no affinity for fibrin
thrombin
  conversion under the action of thrombin: converted to an inactive form upon exposure to a protease called thrombin

## hGM-CSF after sialic acid elimination: hGM-CSF after sialic acid elimination
[1]; after sialic acid elimination
  rate of clearance: increased rate of clearance
[1]
  site of clearance: undergoes clearance in the liver

## hGM-CSF: human granulocyte macrophage colony stimulating factor (hGM-CSF)
[1]; dependence on number of carbohydrate chains
  rate of clearance from the rat plasma: the rate of clearance from the rat plasma increases in proportion to the reduction in the number of carbohydrate chains

## human erythropoietin: human erythropoietin produced in Escherichia coli or enzymatically treated for carbohydrate chain elimination
[2]
  activity in vitro: shows activity in vitro
[3]
  activity in vivo: shows decreased activity in vivo
  clearance: undergoes rapid clearance

## sialic acid-containing hGM-CSF: sialic acid-containing hGM-CSF
[1]
  site of clearance: undergoes clearance in the kidney

## streptokinase: thrombolytic agent
Plasminogen in blood
  systemic hyperfibrinolysis / bleeding tendency: causing systemic hyperfibrinolysis and leading to a bleeding tendency
fibrin
  affinity for fibrin: no affinity for fibrin

## t-PA: tissue plasminogen activator (t-PA)
fibrin
  affinity for fibrin: have affinity for fibrin
plasmin
  conversion under the action of plasmin: Plasmin converts the single-chainform to the double-chain form

B1: hG-CSF: human granulocyte colony stimulating factor (hG-CSF) (protein, UniProt P09919 31-207, looked up)
Granulocyte …: TPLGPASSLPQSFLLKCLEQVRKIQGDGAALQEKLVSECATYKLCHPEELVLLGHSLGIPWAPLSSCPSQALQLAGCLSQLHSGLFLYQGLLQALEGISPELGPTLDTLQLDVADFATTIWQQMEELGMAPALQPTQGAMPAFASAFQRRAGGVLVASHLQSFLEVSYRVLRHLAQP
chymotrypsin
  susceptibility to proteolysis by chymotrypsin behind 144th amino acid Phe: susceptible to proteolysis by chymotrypsin

B2: α1 -acid glycoproteins: α1 -acid glycoproteins differing in carbohydrate structure as biosynthesized in a rat liver primary culture system (protein, UniProt P02764 19-205, looked up)
Alpha-1-acid glycoprotein: QNPEPANITLGIPITNETLKWLSDKWFYMGAAFRDPVFKQAVQTIQTEYFYLTPNLINDTIELREFQTTDDQCVYNFTHLGVQRENGTLSKCAGAVKIFAHLIVLKKHGTFMLAFNLTDENRGLSFYAKKPDLSPELRKIFQQAVKDVGMDESEIVFVDWTKDKCSEQQKQQLELEKETKKETKKDP
modifications: glycoform mixture
notes: α1 -acid glycoproteins differing in carbohydrate structure as biosynthesized in a rat liver primary culture system
[4]
  order of clearance rates: high mannose type>carbohydrate chain-deficient type>hybrid type>complex type (natural form)

Reference: US5218092A, “Modified granulocyte-colony stimulating factor polypeptide with added carbohydrate chains” (Kyowa Hakko Kogyo Co., Ltd., priority 1988, dated 1993)
